Data: the supplement of paper PMC10065799, “High-throughput profiling of sequence recognition by tyrosine kinases and SH2 domains using bacterial peptide display” (eLife, 2023)

How the values were obtained:
c-Abl (mouse) = test: phosphorylation enrichment, bacterial display (enrichment ratio); higher = better substrate or ligand; peptides without Tyr show the background
MERTK = MERTK (UniProt Q12866); test: as above
c-Src = test: as above
EPHB1 = EPHB1 (UniProt P54762); test: as above
FGFR3 = FGFR3 (UniProt P22607); test: as above
Sequence of FGFR3 (P22607 whole entry, looked up): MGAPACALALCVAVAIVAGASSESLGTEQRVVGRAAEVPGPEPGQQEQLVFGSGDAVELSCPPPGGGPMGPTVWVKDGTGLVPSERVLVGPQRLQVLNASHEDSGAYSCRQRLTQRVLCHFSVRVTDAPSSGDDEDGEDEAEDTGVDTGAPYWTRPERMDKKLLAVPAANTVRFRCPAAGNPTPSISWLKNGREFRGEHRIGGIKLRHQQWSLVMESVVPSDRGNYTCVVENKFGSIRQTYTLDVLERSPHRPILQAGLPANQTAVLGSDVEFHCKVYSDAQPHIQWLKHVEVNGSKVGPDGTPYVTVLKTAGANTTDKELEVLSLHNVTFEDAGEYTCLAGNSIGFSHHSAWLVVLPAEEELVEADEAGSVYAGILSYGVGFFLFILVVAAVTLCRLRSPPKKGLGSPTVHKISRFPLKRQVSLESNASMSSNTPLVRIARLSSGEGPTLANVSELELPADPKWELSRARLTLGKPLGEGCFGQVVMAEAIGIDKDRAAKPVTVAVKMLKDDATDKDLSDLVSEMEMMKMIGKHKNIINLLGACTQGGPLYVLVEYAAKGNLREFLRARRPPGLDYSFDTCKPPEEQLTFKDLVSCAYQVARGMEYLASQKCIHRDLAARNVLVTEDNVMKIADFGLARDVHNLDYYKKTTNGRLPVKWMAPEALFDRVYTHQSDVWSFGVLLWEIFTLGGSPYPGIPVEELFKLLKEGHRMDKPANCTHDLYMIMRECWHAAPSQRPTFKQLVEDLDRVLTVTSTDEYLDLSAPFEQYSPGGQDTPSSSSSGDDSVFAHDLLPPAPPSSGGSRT

Jak2 = Jak2 (UniProt O60674); test: as above
Sequence of Jak2 (O60674 whole entry, looked up): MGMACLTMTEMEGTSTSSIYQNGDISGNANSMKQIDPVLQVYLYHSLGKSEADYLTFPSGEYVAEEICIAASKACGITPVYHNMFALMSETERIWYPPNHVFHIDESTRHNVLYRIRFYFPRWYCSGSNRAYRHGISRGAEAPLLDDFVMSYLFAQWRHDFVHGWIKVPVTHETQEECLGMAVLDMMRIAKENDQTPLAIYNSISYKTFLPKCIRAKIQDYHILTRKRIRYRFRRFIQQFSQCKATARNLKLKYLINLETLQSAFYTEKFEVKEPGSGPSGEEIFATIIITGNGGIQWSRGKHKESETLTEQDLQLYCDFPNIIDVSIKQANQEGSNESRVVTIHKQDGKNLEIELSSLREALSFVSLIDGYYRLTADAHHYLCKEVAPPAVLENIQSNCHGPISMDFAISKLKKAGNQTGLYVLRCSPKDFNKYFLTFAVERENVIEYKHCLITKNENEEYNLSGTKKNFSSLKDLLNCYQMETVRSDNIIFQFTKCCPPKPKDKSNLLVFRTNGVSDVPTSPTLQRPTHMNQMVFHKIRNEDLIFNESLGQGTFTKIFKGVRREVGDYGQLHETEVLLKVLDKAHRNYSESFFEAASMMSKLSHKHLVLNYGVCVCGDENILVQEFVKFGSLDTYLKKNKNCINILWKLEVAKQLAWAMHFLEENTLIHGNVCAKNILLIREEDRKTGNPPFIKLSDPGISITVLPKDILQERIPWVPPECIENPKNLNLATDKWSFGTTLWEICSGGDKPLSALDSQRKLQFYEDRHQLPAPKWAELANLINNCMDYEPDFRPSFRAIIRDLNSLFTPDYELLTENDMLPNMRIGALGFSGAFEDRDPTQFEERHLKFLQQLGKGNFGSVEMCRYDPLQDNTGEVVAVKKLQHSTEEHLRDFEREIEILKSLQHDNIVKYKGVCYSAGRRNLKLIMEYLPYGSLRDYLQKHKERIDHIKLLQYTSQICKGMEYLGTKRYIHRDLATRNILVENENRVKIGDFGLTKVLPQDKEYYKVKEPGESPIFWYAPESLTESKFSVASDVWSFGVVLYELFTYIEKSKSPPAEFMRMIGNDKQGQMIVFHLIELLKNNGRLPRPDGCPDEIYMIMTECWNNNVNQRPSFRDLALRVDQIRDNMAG

FGFR1 = FGFR1 (UniProt P11362); test: as above
Sequence of FGFR1 (P11362 whole entry, looked up): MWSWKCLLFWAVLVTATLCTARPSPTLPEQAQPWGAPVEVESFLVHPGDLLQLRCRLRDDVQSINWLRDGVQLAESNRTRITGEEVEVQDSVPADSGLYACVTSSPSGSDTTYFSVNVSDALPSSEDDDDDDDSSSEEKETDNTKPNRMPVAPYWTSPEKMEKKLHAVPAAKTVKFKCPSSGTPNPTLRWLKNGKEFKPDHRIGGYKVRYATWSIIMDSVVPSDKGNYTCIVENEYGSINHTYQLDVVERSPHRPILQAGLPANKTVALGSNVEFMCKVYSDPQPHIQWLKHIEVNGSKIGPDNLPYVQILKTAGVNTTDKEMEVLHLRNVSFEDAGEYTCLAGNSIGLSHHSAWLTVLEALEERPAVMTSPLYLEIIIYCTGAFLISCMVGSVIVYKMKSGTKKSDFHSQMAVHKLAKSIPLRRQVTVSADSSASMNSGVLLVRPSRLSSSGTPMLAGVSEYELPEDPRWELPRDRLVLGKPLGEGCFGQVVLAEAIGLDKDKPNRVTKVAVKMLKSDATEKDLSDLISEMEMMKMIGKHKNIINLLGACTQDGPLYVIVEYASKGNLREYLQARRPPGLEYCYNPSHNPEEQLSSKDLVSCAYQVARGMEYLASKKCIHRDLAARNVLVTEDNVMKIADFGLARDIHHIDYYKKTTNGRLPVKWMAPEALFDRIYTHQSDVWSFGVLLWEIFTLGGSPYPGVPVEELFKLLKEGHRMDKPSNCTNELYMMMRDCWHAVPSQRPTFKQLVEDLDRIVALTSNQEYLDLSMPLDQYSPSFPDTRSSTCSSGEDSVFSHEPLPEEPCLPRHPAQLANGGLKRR

Fyn = Fyn (UniProt P06241); test: as above
Sequence of Fyn (P06241 whole entry, looked up): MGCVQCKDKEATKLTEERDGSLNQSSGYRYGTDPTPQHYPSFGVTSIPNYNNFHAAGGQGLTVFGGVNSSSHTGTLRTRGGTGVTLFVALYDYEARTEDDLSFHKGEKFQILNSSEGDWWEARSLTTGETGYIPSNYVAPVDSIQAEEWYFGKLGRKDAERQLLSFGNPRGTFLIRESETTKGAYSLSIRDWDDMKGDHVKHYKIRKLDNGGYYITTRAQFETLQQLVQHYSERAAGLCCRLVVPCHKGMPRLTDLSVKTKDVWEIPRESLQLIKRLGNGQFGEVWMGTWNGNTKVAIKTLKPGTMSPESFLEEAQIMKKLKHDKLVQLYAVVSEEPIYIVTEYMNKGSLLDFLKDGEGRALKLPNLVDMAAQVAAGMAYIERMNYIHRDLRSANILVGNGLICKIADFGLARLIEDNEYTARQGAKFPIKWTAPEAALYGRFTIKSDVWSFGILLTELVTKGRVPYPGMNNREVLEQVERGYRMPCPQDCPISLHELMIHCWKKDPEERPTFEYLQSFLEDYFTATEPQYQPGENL

EPHB2 = EPHB2 (UniProt P29323); test: as above
AncSZ = test: as above
Fes = Fes (UniProt P07332); test: as above
Hck = Hck (UniProt P08631); test: as above
Sequence of Hck (P08631 whole entry, looked up): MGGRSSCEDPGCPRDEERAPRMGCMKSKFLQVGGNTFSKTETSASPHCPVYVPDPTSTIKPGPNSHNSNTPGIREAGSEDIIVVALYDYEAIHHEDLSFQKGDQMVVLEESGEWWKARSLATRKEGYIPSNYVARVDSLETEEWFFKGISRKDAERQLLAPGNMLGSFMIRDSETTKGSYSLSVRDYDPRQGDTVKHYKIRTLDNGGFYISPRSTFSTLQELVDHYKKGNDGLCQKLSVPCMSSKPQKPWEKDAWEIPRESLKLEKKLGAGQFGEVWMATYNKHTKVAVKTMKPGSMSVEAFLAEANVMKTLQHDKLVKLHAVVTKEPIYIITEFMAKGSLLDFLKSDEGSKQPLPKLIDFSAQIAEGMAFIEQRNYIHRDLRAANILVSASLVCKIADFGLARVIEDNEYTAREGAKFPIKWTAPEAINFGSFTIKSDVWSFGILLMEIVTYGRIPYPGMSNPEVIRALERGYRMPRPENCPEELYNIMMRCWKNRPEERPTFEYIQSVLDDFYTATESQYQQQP

Fer (mouse) = test: as above
SHP2-C SH2 = test: SH2 binding enrichment of the phosphorylated peptide, bacterial display (enrichment ratio); higher = better substrate or ligand; peptides without Tyr show the background
c-Src SH2 = test: as above
Grb2 SH2 = Grb2 SH2 (UniProt P62993); test: as above
Sequence of Grb2 SH2 (P62993 whole entry, looked up, the tested form may be a part): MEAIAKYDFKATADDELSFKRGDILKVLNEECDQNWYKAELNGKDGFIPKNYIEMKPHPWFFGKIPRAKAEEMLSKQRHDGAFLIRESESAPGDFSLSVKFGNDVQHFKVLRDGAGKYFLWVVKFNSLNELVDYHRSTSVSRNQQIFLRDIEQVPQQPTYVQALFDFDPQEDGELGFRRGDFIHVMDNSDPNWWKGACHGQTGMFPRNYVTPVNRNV
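Throughout, for SH2 binding enrichment of the phosphorylated peptide, bacterial display: peptide library displayed on the E. coli surface as eCPX fusions, selected cells deep-sequenced, score is each peptide's frequency after selection divided by its frequency in the input.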
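Throughout, for phosphorylation enrichment, bacterial display: 11-residue human phosphosite peptides and single-mutation variants displayed on the E. coli surface, counted by deep sequencing, each peptide's frequency after selection divided by its frequency in the unselected input library; frequency after pTyr selection over input frequency; kinase dosed for 20-30% of maximal phosphorylation in three min.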

Sequence of MERTK (Q12866 whole entry, looked up): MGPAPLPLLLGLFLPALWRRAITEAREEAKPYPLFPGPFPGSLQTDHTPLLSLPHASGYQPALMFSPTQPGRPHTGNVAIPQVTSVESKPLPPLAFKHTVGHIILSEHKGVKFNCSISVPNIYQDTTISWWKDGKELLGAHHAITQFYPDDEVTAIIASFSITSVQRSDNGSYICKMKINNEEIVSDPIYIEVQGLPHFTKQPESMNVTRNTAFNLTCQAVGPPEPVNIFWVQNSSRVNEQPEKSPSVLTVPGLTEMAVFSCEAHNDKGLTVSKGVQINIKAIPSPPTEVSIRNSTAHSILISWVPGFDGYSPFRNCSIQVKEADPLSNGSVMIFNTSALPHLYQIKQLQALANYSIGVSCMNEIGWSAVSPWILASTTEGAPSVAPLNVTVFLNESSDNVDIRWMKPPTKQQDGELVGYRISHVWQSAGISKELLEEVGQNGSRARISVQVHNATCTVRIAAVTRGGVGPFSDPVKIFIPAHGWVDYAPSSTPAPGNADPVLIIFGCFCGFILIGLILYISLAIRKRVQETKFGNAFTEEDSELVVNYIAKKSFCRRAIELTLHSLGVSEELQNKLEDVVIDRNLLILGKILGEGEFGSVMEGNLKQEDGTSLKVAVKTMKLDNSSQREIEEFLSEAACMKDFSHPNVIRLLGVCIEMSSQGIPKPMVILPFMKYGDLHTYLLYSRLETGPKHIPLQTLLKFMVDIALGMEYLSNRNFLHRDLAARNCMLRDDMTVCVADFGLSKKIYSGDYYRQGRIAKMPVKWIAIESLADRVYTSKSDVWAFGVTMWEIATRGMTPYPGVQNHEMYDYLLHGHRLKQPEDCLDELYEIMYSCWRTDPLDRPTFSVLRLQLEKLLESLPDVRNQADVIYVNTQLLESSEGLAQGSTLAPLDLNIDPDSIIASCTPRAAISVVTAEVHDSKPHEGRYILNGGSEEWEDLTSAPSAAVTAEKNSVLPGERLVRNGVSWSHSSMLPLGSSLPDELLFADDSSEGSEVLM

Row | Sequence | phosphorylation enrichment (c-Abl (mouse)) | phosphorylation enrichment (MERTK) | phosphorylation enrichment (c-Src) | phosphorylation enrichment (EPHB1) | phosphorylation enrichment (FGFR3) | phosphorylation enrichment (Jak2) | phosphorylation enrichment (FGFR1) | phosphorylation enrichment (Fyn) | phosphorylation enrichment (EPHB2) | phosphorylation enrichment (AncSZ) | phosphorylation enrichment (Fes) | phosphorylation enrichment (Hck) | phosphorylation enrichment (Fer (mouse)) | SH2 binding enrichment (SHP2-C SH2) | SH2 binding enrichment (c-Src SH2) | SH2 binding enrichment (Grb2 SH2)
1 | VGSEDYGWDLT [SPTAN1_Y1792_R1794W] | 0.724 | 0.36 | 0.419 | 0.602 | 0.726 | 0.967 | 0.489 | 0.384 | 0.732 | 1.2 | 1.16 | 0.443 | 0.463 | 0.852 | 0.515 | 0.824
2 | VHSGTYQVMVR [MYBPC3_Y1043_T1046M] | 0.489 | 1.27 | 0.988 | 2.04 | 0.468 | 0.467 | 0.456 | 0.539 | 0.648 | 0.711 | 0.637 | 1.98 | 0.343 | 0.628 | 1.56 | 0.94
3 | VIECSYTSADG [DHCR7_Y382] | 0.825 | 0.423 | 0.556 | 0.524 | 0.623 | 0.934 | 0.544 | 0.478 | 0.538 | 1.02 | 1.39 | 0.471 | 0.496 | 0.601 | 1.63 | 0.837
4 | VITDYYVDMKF [MPP4_Y567] | 1.18 | 1.15 | 0.88 | 3.65 | 5.31 | 2.25 | 7.13 | 0.881 | 1.98 | 1.61 | 1.23 | 0.929 | 1.4 | 0.6 | 1.31 | 0.993
5 | VKANTYEKFWL [GATM_Y100_P105L_YF] | 0.672 | 1.19 | 1.11 | 0.562 | 0.722 | 0.821 | 0.382 | 0.803 | 0.545 | 0.887 | 1.07 | 0.684 | 2.9 | 0.807 | 0.794 | 0.819
6 | VKMLEYRGKDV [CASP5_Y74_L75R] | 0.523 | 0.443 | 0.465 | 0.459 | 0.473 | 0.792 | 0.489 | 0.476 | 0.416 | 0.68 | 0.737 | 0.46 | 0.495 | 0.628 | 0.386 | 0.618
7 | VLAHKYHGGGG [HBB_Y146_A141V] | 0.405 | 0.352 | 0.363 | 0.354 | 0.352 | 0.434 | 0.349 | 0.366 | 0.362 | 0.376 | 0.498 | 0.405 | 0.366 | 0.852 | 0.464 | 0.939
8 | VLNHAYENLTR [SYNE2_Y3255_D3253H] | 0.5 | 0.303 | 0.405 | 0.366 | 0.625 | 0.507 | 0.494 | 0.33 | 0.4 | 0.565 | 0.579 | 0.383 | 0.417 | 1.89 | 10.5 | 26.7
9 | VLTSTYRGGGG [HBA1_Y141_K140T] | 0.425 | 0.367 | 0.394 | 0.315 | 0.483 | 0.509 | 0.361 | 0.38 | 0.376 | 0.575 | 0.628 | 0.377 | 0.385 | 0.645 | 0.452 | 0.84
10 | VNNLVYENING [FRS2_Y306_K303N] | 0.703 | 5.31 | 5.42 | 11.8 | 0.576 | 0.571 | 0.57 | 6.01 | 4.94 | 1.17 | 2.21 | 7.03 | 11.8 | 1.35 | 2.29 | 5.57
11 | VPHECYAKVFD [ALB_Y394_D389V] | 0.945 | 0.497 | 0.561 | 0.647 | 0.727 | 0.928 | 0.619 | 0.564 | 0.716 | 1.07 | 1.22 | 0.572 | 0.542 | 1.55 | 2.33 | 0.887
12 | VPLATYMRIYK [RPL21_Y30] | 0.591 | 0.412 | 0.429 | 0.511 | 0.687 | 1.01 | 0.526 | 0.454 | 0.492 | 0.887 | 0.958 | 0.477 | 0.517 | 0.55 | 0.534 | 0.668
13 | VPVPGYTKVPE [SPRR3_Y146_L149V] | 0.615 | 0.501 | 0.398 | 0.365 | 0.789 | 0.769 | 0.437 | 0.494 | 0.541 | 0.776 | 0.75 | 0.526 | 0.525 | 0.581 | 0.56 | 0.81
14 | VQNIVYRTASI [CYP39A1_Y102] | 0.467 | 0.334 | 0.356 | 0.335 | 0.442 | 0.581 | 0.414 | 0.382 | 0.396 | 0.706 | 0.619 | 0.36 | 0.34 | 0.889 | 0.447 | 0.689
15 | VQVAFYTMMMN [SPATA17_Y84_YF] | 1.03 | 3.02 | 0.956 | 1.3 | 1.99 | 1.6 | 1.84 | 0.652 | 1.15 | 1.63 | 1.51 | 0.769 | 1.81 | 0.814 | 0.721 | 0.816
16 | VREIRCQGGNR [VWF_Y1570_Y1570C] | 0.675 | 0.406 | 0.5 | 0.416 | 0.419 | 0.771 | 0.478 | 0.401 | 0.432 | 0.648 | 0.682 | 0.465 | 0.296 | 0.591 | 0.477 | 0.963
17 | VRFMADTDETF [F8_Y450_Y450D] | 0.856 | 0.451 | 0.471 | 0.63 | 0.755 | 1.07 | 0.505 | 0.54 | 0.644 | 1.21 | 1.3 | 0.59 | 0.628 | 0.542 | 0.403 | 0.676

Row | Sequence | phosphorylation enrichment (c-Abl (mouse)) | phosphorylation enrichment (MERTK) | phosphorylation enrichment (c-Src) | phosphorylation enrichment (EPHB1) | phosphorylation enrichment (FGFR3) | phosphorylation enrichment (Jak2) | phosphorylation enrichment (FGFR1) | phosphorylation enrichment (Fyn) | phosphorylation enrichment (EPHB2) | phosphorylation enrichment (AncSZ) | phosphorylation enrichment (Fes) | phosphorylation enrichment (Hck) | phosphorylation enrichment (Fer (mouse)) | SH2 binding enrichment (SHP2-C SH2) | SH2 binding enrichment (c-Src SH2) | SH2 binding enrichment (Grb2 SH2)
18 | VRHRRYKHTHE [CTCF_Y343] | 0.816 | 0.684 | 0.788 | 0.55 | 0.603 | 0.643 | 0.743 | 0.613 | 0.622 | 0.759 | 0.654 | 0.631 | 0.584 | 0.714 | 0.364 | 0.665
19 | VRLTEYPCAGL | 0.527 | 0.367 | 0.398 | 0.456 | 0.523 | 0.673 | 0.396 | 0.358 | 0.457 | 0.638 | 0.781 | 0.428 | 0.381 | 0.76 | 0.572 | 0.932
20 | VRSTEYPCAGL | 0.611 | 0.362 | 0.471 | 0.554 | 0.497 | 0.713 | 0.447 | 0.397 | 0.483 | 0.586 | 0.798 | 0.338 | 0.292 | 1.08 | 0.615 | 1.03
21 | VSGIPYSQPKQ [NEU1_Y251_G252S] | 0.416 | 0.326 | 0.388 | 0.234 | 0.443 | 0.943 | 0.389 | 0.398 | 0.4 | 0.467 | 0.474 | 0.358 | 0.467 | 0.646 | 0.617 | 0.751
22 | VSSPKYGSDDE [TMCC2_Y473] | 0.992 | 0.464 | 0.619 | 0.559 | 0.713 | 0.926 | 0.46 | 0.556 | 0.505 | 0.968 | 1.01 | 0.429 | 0.553 | 0.93 | 0.556 | 1.13
23 | VTRLRYPVCFG [ITK_Y336] | 0.756 | 0.471 | 0.467 | 0.528 | 0.877 | 0.825 | 0.467 | 0.453 | 0.543 | 0.815 | 1.07 | 0.555 | 0.487 | 1.01 | 1.06 | 1.05
24 | VVSLFYGTALF [OR10C1_Y251_M246V] | 1.21 | 0.7 | 1.97 | 0.698 | 0.804 | 1.61 | 0.566 | 1.94 | 0.812 | 1.25 | 1.43 | 1.42 | 1.1 | 0.516 | 0.353 | 0.713
25 | VVTGPYEKPSL [KIR3DS1_Y221_L220P] | 0.966 | 0.45 | 0.472 | 0.55 | 0.491 | 0.69 | 0.581 | 0.473 | 0.513 | 1.04 | 0.746 | 0.503 | 0.665 | 0.636 | 0.704 | 0.875
26 | WGLRSYFETSK [MAGED2_Y448_YF] | 0.517 | 0.385 | 0.32 | 0.553 | 0.645 | 1.04 | 0.536 | 0.526 | 0.594 | 0.967 | 1.08 | 0.489 | 0.42 | 1.53 | 0.882 | 1.08
27 | WISNRSLDFSS [PRPH2_Y184_Y184S] | 0.578 | 0.408 | 0.321 | 0.452 | 0.583 | 0.713 | 0.788 | 0.401 | 0.469 | 0.646 | 0.765 | 0.427 | 0.583 | 0.529 | 0.419 | 0.745
28 | WISNRYLDFSS [PRPH2_Y184] | 0.793 | 0.54 | 0.705 | 0.505 | 0.676 | 0.894 | 0.564 | 0.524 | 0.535 | 0.961 | 0.946 | 0.577 | 0.499 | 0.688 | 0.62 | 0.871
29 | WKEIEYEVVRD [CPS1_Y634] | 0.573 | 0.384 | 0.473 | 0.701 | 0.754 | 0.899 | 0.549 | 0.553 | 1.2 | 1.31 | 1.09 | 0.609 | 0.583 | 0.65 | 0.524 | 0.697
30 | WNNLDYMDSRR [GAA_Y407_D404N] | 0.581 | 0.392 | 0.412 | 0.914 | 0.636 | 0.749 | 0.538 | 0.464 | 0.821 | 0.964 | 0.907 | 0.572 | 0.498 | 1.43 | 0.527 | 0.861
31 | WQQQSYLDSVI [CTNNB1_Y30_G34V] | 0.806 | 0.406 | 0.496 | 0.511 | 0.716 | 0.908 | 0.579 | 0.504 | 0.668 | 0.983 | 1.03 | 0.529 | 0.469 | 0.509 | 0.444 | 0.757
32 | WRGMPYGGRGD [TGM1_Y312_R307W] | 0.396 | 0.363 | 0.419 | 0.34 | 0.486 | 0.482 | 0.388 | 0.467 | 0.401 | 0.548 | 0.514 | 0.39 | 0.31 | 0.739 | 0.709 | 1.19
33 | WTAHSYRMGST [ARHGEF7_Y785] | 0.437 | 0.37 | 0.374 | 0.46 | 0.47 | 0.432 | 0.496 | 0.479 | 0.407 | 0.642 | 0.659 | 0.432 | 0.482 | 0.651 | 0.538 | 0.838
